Data set [1] in a line: K-562 cytotoxicity assay (MTT). The note with it: human, K-562 cells, 100 uM, MTT absorbance. It is filed as cell-based, human. Here is the method:
(§1) The K-562 cell line (CRL-243, ATCC) has attained widespread use as a highly sensitive in vitro target for cytotoxicity assays. K-562 blasts are multipotential, hematopoietic malignant cells that spontaneously differentiate into recognizable progenitors of the erythrocytic, granulocytic and monocytic series (Lozzio, B B et al., Proc. Soc. Exp. Biol. Med. 166: 546-550, 1981).
(§2) K562 cells were plated at 5,000 cells/well in 96-well tissue culture clusters (Costar) in DMEM phenol-free growth medium (Life Technologies) supplemented with pyruvate and 10% serum (HyClone). Next day, human recombinant ZCYTO18 (Example 19), BSA control or retinoic acid (known to be cytotoxic to K562 cells) were added. Seventy-two hours later, the vital stain MTT (Sigma, St Louis, Mo.), a widely used indicator of mitochondrial activity and cell growth, was added to the cells at a final concentration of 0.5 mg/ml. MTT is converted to a purple formazan derivative by mitochondrial dehydrogenases. Four hours later, converted MTT was solubilized by adding an equal volume of acidic isopropanol (0.04N HCl in absolute isopropanol) to the wells. Absorbance was measured at 570 nm, with background subtraction at 650 nm. In this experimental setting, absorbance reflects cell viability. Results shown in Table 7 are expressed as % cytotoxicity.

A further data set has as its target T1, ZCYTO18 (Homo sapiens, UniProt Q9GZX6).
T1 sequence (Q9GZX6 34-179): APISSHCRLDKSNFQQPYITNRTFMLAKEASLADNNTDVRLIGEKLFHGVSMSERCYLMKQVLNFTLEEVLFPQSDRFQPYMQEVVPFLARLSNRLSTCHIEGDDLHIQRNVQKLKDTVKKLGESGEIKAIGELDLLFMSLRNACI
The note with it: commonly owned PCT/US00/32703; cited from earlier work.

The next data set deals with BaF3/CRF2-4 cells. As to the kind of experiment: Alamar Blue proliferation assay, BaF3/CRF2-4 cells. It is filed as cell-based, murine. The conditions noted are these: mIL-3 free media. Here is the method:
BaF3, an interleukin-3 (IL-3) dependent pre-lymphoid cell line derived from murine bone marrow (Palacios and Steinmetz, Cell 41: 727-734, 1985; Mathey-Prevot et al., Mol. Cell. Biol. 6: 4133-4135, 1986), was maintained in complete media (RPMI medium (JRH Bioscience Inc., Lenexa, Kans.) supplemented with 10% heat-inactivated fetal calf serum, 2 ng/ml murine IL-3 (mIL-3) (R & D, Minneapolis, Minn.), 2 mM L-glutaMax-1™ (Gibco BRL), 1 mM Sodium Pyruvate (Gibco BRL), and PSN antibiotics (GIBCO BRL)). Prior to electroporation, CRF2-4/pZP7P was prepared and purified using a Qiagen Maxi Prep kit (Qiagen) as per manufacturer's instructions. […]
BaF3/CRF2-4/zcytor11 cells were spun down and washed in the complete media, described in Example 21A above, but without mIL-3 (hereinafter referred to as “mIL-3 free media”). […] Cells were then counted in a hemacytometer. […]
Proliferation of the BaF3/CRF2-4/zcytor11 cells was assessed using ZCYTO18-CEE protein diluted with mIL-3 free media to 50, 10, 2, 1, 0.5, 0.25, 0.13, 0.06 ng/ml concentrations. […] Alamar Blue gives a fluourometric readout based on number of live cells, and is thus a direct measurement of cell proliferation in comparison to a negative control. […] Plates were read on the Finax™ plate reader (Molecular Devices Sunnyvale, Calif.) using the SoftMax™ Pro program, at wavelengths 544 (Excitation) and 590 (Emmission). […]

The subject of the next data set is BaF3 wild type cells. Put plainly: Alamar Blue proliferation assay, BaF3 wild type cells. It is filed as cell-based, murine. The conditions noted are these: mIL-3 free media.
Data set [2] relates to BaF3/CRF2-4/zcytor11 cells. Put plainly: Alamar Blue proliferation assay, BaF3/CRF2-4/zcytor11 cells. It is filed as cell-based, murine. The conditions noted are these: for proliferative response (in words): 0.06-50 ng/ml, media without IL-3. Here is the method:
BaF3/CRF2-4/zcytor11 cells were spun down and washed in the complete media, described in Example 21A above, but without mIL-3 (hereinafter referred to as “mIL-3 free media”). The cells were spun and washed 3 times to ensure the removal of the mIL-3. Cells were then counted in a hemacytometer. Cells were plated in a 96-well format at 5000 cells per well in a volume of 100 μl per well using the mIL-3 free media.
Proliferation of the BaF3/CRF2-4/zcytor11 cells was assessed using ZCYTO18-CEE protein diluted with mIL-3 free media to 50, 10, 2, 1, 0.5, 0.25, 0.13, 0.06 ng/ml concentrations. 100 μl of the diluted protein was added to the BaF3/CRF2-4/zcytor11 cells. The total assay volume is 200 μl. The assay plates were incubated at 37° C., 5% CO2 for 3 days at which time Alamar Blue (Accumed, Chicago, Ill.) was added at 20 μl/well. Plates were again incubated at 37° C., 5% CO2 for 24 hours. Alamar Blue gives a fluourometric readout based on number of live cells, and is thus a direct measurement of cell proliferation in comparison to a negative control. […]. Plates were read on the Finax™ plate reader (Molecular Devices Sunnyvale, Calif.) using the SoftMax™ Pro program, at wavelengths 544 (Excitation) and 590 (Emmission). […] The response, as measured, was approximately 15-fold over background at the high end of 50 ng/ml down to a 2-fold induction at the low end of 0.06 ng/ml.

The next data set deals with K-562 cells. Put plainly: K-562 cytotoxicity assay (MTT). It is filed as cell-based, human. The note with it: 72 hours, MTT absorbance. Here is the method: as §1, §2

As for `CC1=C(/C=C/C(C)=C/C=C/C(C)=C/C(=O)O)C(C)(C)CCC1` [Retinoic acid, reference compound], the cytotoxicity at 72 h, 100 µM in data set [1] is 62%.

B1: zcytor16: naturally-expressed soluble receptor antagonist of ZCYTO18 (SEQ ID NO:32, SEQ ID NO:33) (protein, listed as Homo sapiens)
chain: MMPKHCFLGFLISFFLTGVAGTQSTHESLKPQRVQFQSRNFHNILQWQPGRALTGNSSVYFVQYKIYGQRQWKNKEDCWGTQELSCDLTSETSDIQEPYYGRVRAASAGSYSEWSMTPRFTPWWETKIDPPVMNITQVNGSLLVILHAPNLPYRYQKEKNVSIEDYYELLYRVFIINNSLEKEQKVYEGAHRAVEIEALTPHSSYCVVAEIYQPMLDRRSQRSEERCVEIP
For B1, the “binding of ZCYTO18 and antagonism of its activity” value with ZCYTO18 was “bind ZCYTO18 and antagonize its activity”.

B2: ZCYTO18-CEE: ZCYTO18 polypeptide containing C-terminal GluGlu (EE) tag (SEQ ID NO:14), purified from BHK 570 or Sf9 cells (protein)
chain: APISSHCRLDKSNFQQPYITNRTFMLAKEASLADNNTDVRLIGEKLFHGVSMSERCYLMKQVLNFTLEEVLFPQSDRFQPYMQEVVPFLARLSNRLSTCHIEGDDLHIQRNVQKLKDTVKKLGESGEIKAIGELDLLFMSLRNACIEYMPME
As to B2, the “proliferation in response to ZCYTO18-CEE” value in the data set with BaF3/CRF2-4 cells and in the data set on BaF3 wild type cells was “did not proliferate” each time. In addition, the “proliferative response over background” value in data set [2] (50 ng/ml, mIL-3 free media, 3 days then Alamar Blue) was “approximately 15 fold”. Besides, the “proliferative response (in words)” value in data set [2] is recorded as “dose-dependent proliferative response”.

B3: ZCYTO18: novel four-helical-bundle cytokine polypeptide, SEQ ID NO:3; annotated in the literature as IL-TIF (protein, listed as Homo sapiens)
chain: MGTLATSCLLLLALLVQGGAAAPISSHCRLDKSNFQQPYITNRTFMLAKEASLADNNTDVRLIGEKLFHGVSMSERCYLMKQVLNFTLEEVLFPQSDRFQPYMQEVVPFLARLSNRLSTCHIEGDDLHIQRNVQKLKDTVKKLGESGEIKAIGELDLLFMSLRNACI
For the molecule B3, the “% Cytotoxicity” value in the data set on K-562 cells (100 ng/ml) is 16.2%; in the data set on K-562 cells (300 ng/ml) it was 32%. For the same molecule, the “proliferative response (in words)” value in data set [2] is given as “dose-dependent proliferative response”.

These data come from patent publication US8475791B2, “Anti-IL-TIF antibodies and methods of use” (ZymoGenetics, Inc., priority 1999, dated 2013).
